According to article PMC9040831 (mBio, 2022):
Residue numbers refer to the chain shown, from its start. Names and notes keep the numbering of the source.

T1: AmtB (EcAmtB) (Escherichia coli, UniProt P69681)
T1 construct: AmtB(His)6 from pET22b(+), expressed in E. coli C43, purified, reconstituted into liposomes; homotrimer; 1U7G for the simulations only
T1 sequence (P69681 23-428): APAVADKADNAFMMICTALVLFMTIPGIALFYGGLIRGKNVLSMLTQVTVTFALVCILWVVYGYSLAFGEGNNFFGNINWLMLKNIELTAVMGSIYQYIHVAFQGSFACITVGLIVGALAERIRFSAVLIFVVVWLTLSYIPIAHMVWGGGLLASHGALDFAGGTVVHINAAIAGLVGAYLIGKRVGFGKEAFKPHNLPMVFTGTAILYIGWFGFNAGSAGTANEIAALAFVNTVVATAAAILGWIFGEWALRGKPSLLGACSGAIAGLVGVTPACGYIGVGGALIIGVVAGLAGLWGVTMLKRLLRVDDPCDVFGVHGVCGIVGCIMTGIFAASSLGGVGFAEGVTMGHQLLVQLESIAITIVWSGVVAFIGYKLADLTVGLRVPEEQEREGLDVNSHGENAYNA

B1: AmtB (EcAmtB) (Escherichia coli K-12) (protein)
chain: T1 sequence (P69681 23-428)
notes: AmtB(His)6 from pET22b(+), expressed in E. coli C43, purified, reconstituted into liposomes; homotrimer; 1U7G for the simulations only
B2: AmtB (EcAmtB) (Escherichia coli K-12; H190D) (protein)
chain: T1 sequence (P69681 23-428) with H168D
notes: as for B1
B3: AmtB (EcAmtB) (Escherichia coli K-12; H190E) (protein)
chain: T1 sequence (P69681 23-428) with H168E
notes: as for B1

Legend:
[1] = biological target: T1, AmtB (EcAmtB); assay: solid supported membrane electrophysiology (SSME), proteoliposomes; type: biochemical; conditions: read-out: Ammonium; transport; maximum transient current amplitude
Description: (§1) solid supported membrane electrophysiology (SSME), proteoliposomes on AmtB (EcAmtB)

[2] = substrate: CN; assay: as above; type: biochemical, Escherichia coli; conditions: transport; maximum transient current amplitude
Description: as §1

[3] = substrate: N; assay: purified protein; conditions: transport; maximum transient current amplitude

Row | Km [1] | Molecule | Km [2] | Km [3]
1 | 0.8 ± 0.1 mM | N [ammonium] |  | 
2 |  | B1 | 49.86 ± 4.76 mM | 
3 |  | B2 | 55.09 ± 12.67 mM | 14.02 ± 4.08 mM
4 |  | B3 | 86.00 ± 9.46 mM | 12.87 ± 7.79 mM
